Experiments:
NF-κB p65 subunit (RelA) = NF-κB p65 subunit (RelA) (human, UniProt Q04206 1-551); assay: complex composition inferred from EMSA supershift
c-myc mRNA = assay: In vitro mRNA degradation assay with in vitro translated proteins; type: biochemical, human; details: in vitro translated protein incubated with HO-1 total RNA for 0.5 and 2 h
Description: In vitro Translation and in vitro mRNA Degradation Assays: In vitro translation was performed using the TNT coupled Reticulocyte Lysate Systems (Promega) using the plasmids pcDNA3.1+(Hygro) as a control, GADD153 expression plasmid, phPNPase^old-35, pΔRPH1, pΔRPH2, pΔRPH1+2 and pΔC-term according to the manufacturer's protocol. Five […] of total RNA from HO-1 cells were incubated with 5 μl of each in vitro translated protein at 37° C. from 0.5 to 2 h. The RNA was repurified using the Qiagen RNeasy mini kit (Qiagen) and Northern blotting was performed.

[1] = molecular target: the molecule itself; assay: self-association inferred from anti-HA Western blot of fractionated HO-1 cells

Sequence of NF-κB p65 subunit (RelA) (Q04206 whole entry): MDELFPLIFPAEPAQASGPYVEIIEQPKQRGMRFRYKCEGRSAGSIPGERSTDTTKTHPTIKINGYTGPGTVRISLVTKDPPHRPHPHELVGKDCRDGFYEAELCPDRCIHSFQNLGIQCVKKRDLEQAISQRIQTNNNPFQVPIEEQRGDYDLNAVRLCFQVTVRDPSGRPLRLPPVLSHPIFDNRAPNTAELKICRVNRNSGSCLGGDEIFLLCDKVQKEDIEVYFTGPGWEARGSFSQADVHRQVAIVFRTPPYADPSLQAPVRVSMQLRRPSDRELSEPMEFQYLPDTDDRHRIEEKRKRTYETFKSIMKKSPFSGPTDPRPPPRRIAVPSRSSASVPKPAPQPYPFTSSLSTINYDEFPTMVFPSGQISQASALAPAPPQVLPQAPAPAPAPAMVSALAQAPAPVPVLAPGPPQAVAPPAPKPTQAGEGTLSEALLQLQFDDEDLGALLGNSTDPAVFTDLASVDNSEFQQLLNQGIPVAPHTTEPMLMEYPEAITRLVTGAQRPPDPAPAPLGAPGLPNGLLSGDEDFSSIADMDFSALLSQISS

Row | binding result (NF-κB p65 subunit (RelA)) | Molecule | degradation of c-myc mRNA (c-myc mRNA) | binding result [1]
1 | binds | NF-κB p50 subunit (other, human, UniProt P19838 1-433, looked up, also called NF-κB1 (p50/p105)) MAEDDPYLGRPEQMFHLDPSLTHTIFNPEVFQPQMALPTDGPYLQILEQPKQRGFRFRYVCEGPSHGGLPGASSEKNKKSYPQVKICNYVGPAKVIVQLVTNGKNIHLHAHSLVGKHCEDGICTVTAGPKDMVVGFANLGILHVTKKKVFETLEARMTEACIRGYNPGLLVHPDLAYLQAEGGGDRQLGDREKELIRQAALQQTKEMDLSVVRLMFTAFLPDSTGSFTRRLEPVVSDAIYDSKAPNASNLKIVRMDRTAGCVTGGEEIYLLCDKVQKDDIQIRFYEEEENGGVWEGFGDFSPTDVHRQFAIVFKTPKYKDINITKPASVFVQLRRKSDLETSEPKPFLYYPEIKDKEEVQRKRQKLMPNFSDSFGGGSGAGAGGGGMFGSGGGGGGTGSTGPGYSFPHYGFPTYGGITFHPGTTKSNAGMKHG |  | 
2 |  | ΔRPH2 deletion mutant of hPNPase^OLD-35 (a.a. 1-202 and 496-783) with C-terminal HA tag (enzyme, The two fragments were joined at an HpaI site; also called Ad.ΔRPH2; pΔRPH2) MAACRYCCSCLRLRPLSDGPFLLPRRDRALTQLQVRALWSSAGSRAVAVDLGNRKLEISSGKLARFADGSAVVQSGDTAVMVTAVSKTKPSPSQFMPLVVDYRQKAAAAGRIPTNYLRREVGTSDKEILTSRIIDRSIRPLFPAGYFYDTQVLCNLLAVDGVNEPDVLAINGASVALSLSDIPWNGPVGAVRIGIIDGEYVVMDSGVPISSAVAGVAIGLVTKTDPEKGEIEDYRLLTDILGIEDYNGDMDFKIAGTNKGITALQADIKLPGIPIKIVMEAIQQASVAKKEILQIMNKTISKPRASRKENGPVVETVQVPLSKRAKFVGPGGYNLKKLQAETGVTISQVDEETFSVFAPTPSVMHEARDFITEICKDDQEQQLEFGAVYTATITEIRDTGVMVKLYPNMTAVLLHNTQLDQRKIKHPTALGLEVGQEIQVKYFGRDPADGRMRLSRKVLQSPATTVVRTLNDRSSIVMGEPISQSSSNSQYPYDVPDYA | significant degradation | no binding
3 |  | ΔC-term deletion mutant of hPNPase^OLD-35 (a.a. 1-507) with C-terminal HA tag (enzyme, also called Ad.ΔC-term; pΔC-term) MAACRYCCSCLRLRPLSDGPFLLPRRDRALTQLQVRALWSSAGSRAVAVDLGNRKLEISSGKLARFADGSAVVQSGDTAVMVTAVSKTKPSPSQFMPLVVDYRQKAAAAGRIPTNYLRREVGTSDKEILTSRIIDRSIRPLFPAGYFYDTQVLCNLLAVDGVNEPDVLAINGASVALSLSDIPWNGPVGAVRIGIIDGEYVVNPTRKEMSSSTLNLVVAGAPKSQIVMLEASAENILQQDFCHAIKVGVKYTQQIIQGIQQLVKETGVTKRTPQKLFTPSPEIVKYTHKLAMERLYAVFTDYEHDKVSRDEAVNKIRLDTEEQLKEKFPEADPYEIIESFNVVAKEVFRSIVLNEYKRCDGRDLTSLRNVSCEVDMFKTLHGSALFQRGQTQVLCTVTFDSLESGIKSDQVITAINGIKDKNFMLHYEFPPYATNEIGKVTGLNRRELGHGALAEKALYPVIPRDFPFTIRVTSEVLESNGSSSMASACGGSLALMDSGVPISSAVAYPYDVPDYA | significant degradation | no binding

From patent publication US20080057055A1, “OLD-35 as an inflammatory agent” (priority 2004, published 2008)
